Source: patent US20190142868A1, “METHODS OF TREATING DISEASES ASSOCIATED WITH ILC3 CELLS” (Instituto de Medicina Moleccular, priority 2016, published 2019)

B1: GDNF: Glial cell-derived neurotrophic factor, a GFRα1 ligand (protein, UniProt P39905 78-211, looked up)
Glial cell line-derived …: SPDKQMAVLPRRERNRQAAAANPENSRGKGRRGQRGKNRGCVLTAIHLNVTDLGLGYETKEELIFRYCSGSCDAAETTYDKILKNLSRNRRLVSDKVGQACCRPIAFDDDLSFLDDNLVYHILRKHSAKRCGCI
B2: IL-1β: recombinant protein from R&D Systems (401ML005), alarmin (protein, UniProt P10749 118-269, looked up)
Interleukin-1 beta: VPIRQLHYRLRDEQQKSLVLSDPYELKALHLNGQNINQQVIFSMSFVQGEPSNDKIPVALGLKGKNLYLSCVMKDGTPTLQLESVDPKQYPKKKMEKRFVFNKIEVKSKVEFESAEFPNWYISTSQAEHKPVFLGNNSGQDIIDFTMESVSS
B3: IL-33: recombinant protein from R&D Systems (3626ML), alarmin (protein, UniProt Q8BVZ5 1-266, looked up)
Interleukin-33: MRPRMKYSNSKISPAKFSSTAGEALVPPCKIRRSQQKTKEFCHVYCMRLRSGLTIRKETSYFRKEPTKRYSLKSGTKHEENFSAYPRDSRKRSLLGSIQAFAASVDTLSIQGTSLLTQSPASLSTYNDQSVSFVLENGCYVINVDDSGKDQEQDQVLLRYYESPCPASQSGDGVDGKKLMVNMSPIKDTDIWLHANDKDYSVELQRGDVSPPEQAFFVLHKKSSDFVSFECKNLPGTYIGVKDNQLALVEEKDESCNNIMFKLSKI

Columns and labels:
RET = settings: cited from earlier work; for RET autophosphorylation: Tokugawa et al. 2003 (XIB4035, GDNF), Akeno-Stuart et al. 2007 (AST 487)
[1] = tested on: neurosphere-derived glial cells; test: Activation of neurosphere-derived glial cells, alone or co-cultured with ILC3; type: cell-based, mice; settings: for innate Il22 in ILC3 co-cultured with glial cells: 24 hours of co-culture, MYD88 dependent; for GFL expression in glial cells: activation of neurosphere-derived glial cells
Procedure: Neurosphere-derived glial cells were obtained as previously described^60. Briefly, total intestines from E14.5 C57BL/6J and Myd88^−/− mice were digested with collagenase D (0.5 mg/mL; Roche) and DNase I (0.1 mg/mL; Roche) in DMEM/F-12, GlutaMAX, supplemented with 1% hepes, streptomycin/penicillin and 0.1% β-mercaptoethanol (Gibco) for approximately 30 minutes at 37° C. under gentle agitation. Cells were cultured during 1 week in a CO2 incubator at 37° C. in DMEM/F-12, GlutaMAX™, streptomycin and penicillin and 0.1% P3-mercaptoethanol (Gibco) supplemented with B27 (Gibco), EGF (Gibco) and FGF2 (Gibco) 20 ng/mL. After 1 week of culture cells were treated with 0.05% trypsin (Gibco), transferred into PDL (Sigma-Aldrich) coated plates and culture in DMEM supplemented with 10% FBS, 1% hepes, glutamine, streptomycin and penicillin and 0.1% β-mercaptoethanol (Gibco) until confluence. Glial cells were activated with TLR2 (5 μg/ml) (Pam3CSK4), TLR3 ([…]) (PolyI:C), TLR4 (50 ng/ml) (LPS), TLR9 ([…]) (DsDNA-EC) ligands from Invivogen and IL-1β (10 ng/mL) (401ML005), IL-18 (50 ng/mL) (B002-5), IL-33 (0.1 ng/mL) (3626ML) recombinant proteins from R&D Systems. Cells were also co-cultured with purified ILC3 from WT and Illb deficient mice. IL-22 expression in glial-ILC3 co-cultures upon TLR4 activation was also performed using GDNF ([…]) (AB-212-NA), NRTN ([…]) (AF-387sp) and ARTN (0.3 μg/mL) (AF-1085-sp) blocking antibodies. Cells were analysed after 24 hours of co-culture.

Molecule	activation of downstream effectors of RET (RET; Akeno-Stuart et al. 2007)	RET autophosphorylation (RET)	innate Il22 in ILC3 co-cultured with glial cells [1]	GFL expression in glial cells [1]
CCN1CCN(Cc2ccc(NC(=O)Nc3ccc(Oc4cc(NC)ncn4)cc3)cc2C(F)(F)F)CC1 [AST 487, 1-[4-[(4-ethylpiperazin-1-yl)methyl]-3-(trifluoromethyl)phenyl]-3-[4-[6-(methylamino)pyrimidin-4-yl]oxyphenyl]urea]	inhibit	inhibit	–	–
CCN(CC)CCCC(C)Nc1cc(/C=C/c2ccccc2Cl)nc2cc(Cl)ccc12 (centres unmarked) [XIB4035, N(4)-(7-chloro-2-[(E)-2-(2-chloro-phenyl)-vinyl]-quinolin-4-yl)-N(1),N(1)-diethyl-pentane-1,4-diamine]	–	induced	–	–
B1	–	induced	–	–
B2	–	–	induced robust	efficiently controlled
B3	–	–	induced robust	efficiently controlled
